What all share (details): tags: NLS, 6xHis
The target in data set [1] is T1, MHP14(07) (artificial).
T1 chain: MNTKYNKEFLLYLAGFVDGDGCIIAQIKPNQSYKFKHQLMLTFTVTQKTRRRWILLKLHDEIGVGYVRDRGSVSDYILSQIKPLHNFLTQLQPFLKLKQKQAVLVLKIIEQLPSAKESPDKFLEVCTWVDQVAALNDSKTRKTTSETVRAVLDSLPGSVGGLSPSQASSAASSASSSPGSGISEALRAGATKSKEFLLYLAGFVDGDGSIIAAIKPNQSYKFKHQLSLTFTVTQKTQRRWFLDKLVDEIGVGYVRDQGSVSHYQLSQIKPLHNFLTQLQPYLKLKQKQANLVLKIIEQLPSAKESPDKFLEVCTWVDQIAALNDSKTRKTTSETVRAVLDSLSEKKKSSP
The data set can be described thus: cell_activity; yeast 37 C; 28 C: 0.5. As to the method:
A 3 mL culture of selective media (MP Biomedical) was inoculated with a single colony of the yeast screening strain and grown at 30° C. overnight. On the following day, a 50 ml YPD culture (MP Biomedical) was started with 2 ml of the overnight culture and grown at 30° C. overnight. On the following day, the cells were harvested by centrifugation at 4000 rpm. The cells were resuspended in 100 ml ice cold water and centrifuged again. The cells were then washed in 1.2 M sorbitol, followed by treatment with 2 ml of 10 mM Tris pH 8.0, 1 mM EDTA, 100 mM Lithium acetate, 10 mM DTT, 0.6M sorbitol for 30 minutes at 30° C. with shaking. The cells were recovered by centrifugation, washed in 40 ml 1.2M sorbitol and finally resuspended in 250 microliters of 1.2M sorbitol. 50 microliter aliquots were transferred to test tubes on ice. Up to 5 microliters of DNA (100-500 nanograms) were added. The suspension was transferred to a 0.2 cm electroporation cuvette, on ice. Electroporation was performed with a pulse charge at 1.5 kV, 200 ohms, 25 microF (pulse time of 5 milliseconds). 1 mL YPD media (MP Biomedical) was added and the cells were allowed to recover at 30° C. for 1-2 hr. The cells were centrifuged, resuspended in 100 uL 1M sorbitol and plated on selective media lacking leucine and containing 2% galactose. The resulting yeast colonies were incubated at various temperatures ranging from 22 to 37 degrees Celsius for 7-10 days. I-CreI and meganucleases derived from it have maximal activity at or above 37 degrees Celsius. Screening was performed at a range of temperatures from 22 to 37 degrees in order to observe increases in activity at lower temperatures which are relevant to certain biological systems (eg. plant cells, plant cell cultures, etc). At that time the red/white sectoring phenotype, indicative of meganuclease activity was observed. Colonies with increased white sectoring over the parental meganuclease (indicating colonies expressing a meganuclease with increased meganuclease activity), also referred to as “hits” and sometimes completely white, were isolated for further analysis. […]

Data set [2] has as its target T2, LIG3-4(B70) (artificial).
T2 chain: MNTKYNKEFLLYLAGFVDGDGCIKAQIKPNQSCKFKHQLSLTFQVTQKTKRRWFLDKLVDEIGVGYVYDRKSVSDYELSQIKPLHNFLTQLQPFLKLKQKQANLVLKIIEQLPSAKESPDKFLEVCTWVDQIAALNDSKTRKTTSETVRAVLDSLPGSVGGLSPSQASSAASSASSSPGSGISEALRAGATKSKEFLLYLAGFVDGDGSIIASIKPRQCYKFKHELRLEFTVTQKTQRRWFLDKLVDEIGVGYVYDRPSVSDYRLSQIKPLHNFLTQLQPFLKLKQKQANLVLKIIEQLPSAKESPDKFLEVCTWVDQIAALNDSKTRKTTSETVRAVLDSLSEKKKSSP
Description: cell_activity; yeast 30 C; 22 C: 4. On the procedure: (§1) A 3 mL culture of selective media (MP Biomedical) was inoculated with a single colony of the yeast screening strain and grown at 30° C. overnight. On the following day, a 50 ml YPD culture (MP Biomedical) was started with 2 ml of the overnight culture and grown at 30° C. overnight. On the following day, the cells were harvested by centrifugation at 4000 rpm. The cells were resuspended in 100 ml ice cold water and centrifuged again. The cells were then washed in 1.2 M sorbitol, followed by treatment with 2 ml of 10 mM Tris pH 8.0, 1 mM EDTA, 100 mM Lithium acetate, 10 mM DTT, 0.6M sorbitol for 30 minutes at 30° C. with shaking. The cells were recovered by centrifugation, washed in 40 ml 1.2M sorbitol and finally resuspended in 250 microliters of 1.2M sorbitol. 50 microliter aliquots were transferred to test tubes on ice. Up to 5 microliters of DNA (100-500 nanograms) were added. The suspension was transferred to a 0.2 cm electroporation cuvette, on ice. Electroporation was performed with a pulse charge at 1.5 kV, 200 ohms, 25 microF (pulse time of 5 milliseconds). 1 mL YPD media (MP Biomedical) was added and the cells were allowed to recover at 30° C. for 1-2 hr. The cells were centrifuged, resuspended in 100 uL 1M sorbitol and plated on selective media lacking leucine and containing 2% galactose. The resulting yeast colonies were incubated at various temperatures ranging from 22 to 37 degrees Celsius for 7-10 days. I-CreI and meganucleases derived from it have maximal activity at or above 37 degrees Celsius. Screening was performed at a range of temperatures from 22 to 37 degrees in order to observe increases in activity at lower temperatures which are relevant to certain biological systems (eg. plant cells, plant cell cultures, etc). At that time the red/white sectoring phenotype, indicative of meganuclease activity was observed. Colonies with increased white sectoring over the parental meganuclease (indicating colonies expressing a meganuclease with increased meganuclease activity), also referred to as “hits” and sometimes completely white, were isolated for further analysis.

Data set [3] deals with T3, LIG3-4(B73) (artificial).
T3 chain: T2 chain with K50Q, P258K
Description: cell_activity; yeast 30 C; 22 C: 4. As to the method: as §1

Data set [4] deals with T4, LIG3-4(B76) (artificial).
T4 chain: T2 chain with K71G, P258K
Description: cell_activity; yeast 30 C; 22 C: 4. On the procedure: as §1

The target in data set [5] is T5, LIG3-4(B75) (artificial).
T5 chain: T2 chain with K71P, P258K
Description: cell_activity; yeast 30 C; 22 C: 4. As to the method: as §1

Numbering of substitutions follows the chain as printed.

B1: MHP14 recognition site (dsDNA)
DNA 1: CAAACAGATTCACGTCAGATTT
DNA 2: AAATCTGACGTGAATCTGTTTG
On to B1, for which the activity in data set [1] worked out at 2.5 score 0-4.

B2: LIG3-4 recognition site (dsDNA)
DNA 1: ATATACCTCACACGTACGCGTA
DNA 2: TACGCGTACGTGTGAGGTATAT
Turning to B2, the activity in data set [2], in data set [3], in data set [4] and in data set [5] was 4 score 0-4 in each case.

For the origin of these results see patent US20140223606, “COMPOSITIONS AND METHODS COMPRISING SEQUENCES HAVING MEGANUCLEASE ACTIVITY” (PIONEER HI BRED INTERNATIONAL INC, published 2014).
